Where no end group is shown, it is not given here.
How the values were obtained:
[1] = target: Aβ oligomers: soluble prefibrillar aggregates of biotinylated Aβ(1–42) (biotin (position not given)); assay: SPR
[2] = target: T1, Aβ monomers on the SPR chip: biotinylated Aβ 11–28 (also: biotin, position not given here); assay: SPR
T1 chain: EVHHQKLVFFAEDVGSNK

Chain of Aβ oligomers: soluble prefibrillar aggregates of biotinylated Aβ(1–42) (biotin (position not given)) (P05067 672-713): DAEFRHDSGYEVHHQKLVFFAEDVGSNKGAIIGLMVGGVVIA

- Kd [1]: 0.42 nM
- Kd [2]: 3.2 nM
B1: Crenezumab, fully humanized anti-Aβ monoclonal IgG4 (antibody, V domains shown)
VH: EVQLVESGGGLVQPGGSLRLSCAASGFTFSSYGMSWVRQAPGKGLELVASINSNGGSTYYPDSVKGRFTISRDNAKNSLYLQMNSLRAEDTAVYYCASGDYWGQGTTVTVSS
VL: DIVMTQSPLSLPVTPGEPASISCRSSQSLVYSNGDTYLHWYLQKPGQSPQLLIYKVSNRFSGVPDRFSGSGSGTDFTLKISRVEAEDVGVYYCSQSTHVPWTFGQGTKVEIK
